Measurements taken from paper PMC4126857.

Experiments:
[1] = target: Drosophila Plk4 cryptic polo box (DmPlk4 CPB), aa 383-601 (Drosophila) (UniProt O97143); assay: MST
[2] = target: ZYG-1 cryptic polo box (CPB), aa 338-564 (C. elegans) (UniProt Q9GT24); assay: MST
ZYG-1 cryptic polo box (CPB), aa 338-564 (C. elegans), sequence (Q9GT24 338-564): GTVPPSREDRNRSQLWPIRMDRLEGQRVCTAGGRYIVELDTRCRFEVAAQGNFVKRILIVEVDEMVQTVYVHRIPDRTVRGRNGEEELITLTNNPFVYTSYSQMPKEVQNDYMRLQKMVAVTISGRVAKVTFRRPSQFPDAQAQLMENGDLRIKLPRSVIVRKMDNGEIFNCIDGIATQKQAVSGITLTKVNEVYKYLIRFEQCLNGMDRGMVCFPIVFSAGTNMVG

Drosophila Plk4 cryptic polo box (DmPlk4 CPB), aa 383-601 (Drosophila), sequence (O97143 383-601): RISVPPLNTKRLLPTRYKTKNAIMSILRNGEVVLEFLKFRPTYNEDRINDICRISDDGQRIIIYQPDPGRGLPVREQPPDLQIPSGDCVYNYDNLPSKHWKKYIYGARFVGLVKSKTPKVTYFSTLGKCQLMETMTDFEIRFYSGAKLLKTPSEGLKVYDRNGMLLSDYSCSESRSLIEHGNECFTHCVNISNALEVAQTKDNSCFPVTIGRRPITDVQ

| Kd [1] [nM] | Kd [2] [nM] | Substance |
| --- | --- | --- |
| 720 | – | MmAsl acidic region (MmAsl AR), MST ligand (from UniProt A2AUM9 1-1736) (domain or fragment) |
| 530 | 5170 | MmSPD-2 acidic region (MmSPD-2 AR), MST ligand (from UniProt E9Q4Y4 1-2514) (domain or fragment) |
